# Test results: patent US20240101647A1 (VIB VZW, published 2024)
# Legend:
# [1] = molecular target: T1, monomeric human Fc-fused SARS-CoV-2_RBD-SD1 (SARS-CoV-2, UniProt P0DTC2 319-591); experiment: ELISA with periplasmic extract, RBD captured by VHH72-Fc
# [2] = molecular target: T1, monomeric human Fc-fused …
binder,measurement,setting,value
VHH3.94 (VHH) VHH: QVQLQESGGGLVQPGGSLRLSCAASGKAVSISDMGWYRQPPGKQRELVATITKSGSTNYANSAQGRFTISRDNAKSAVYLEMNSLKPEDTAVYYCNAWLPYGMGPDYYGMELWGEGTQVTVSS,binding result,[1],binds
VHH3.89 (VHH) VHH: QVQLQESGGGLVQPGGSLRLSCAASGFTLDYYAIGWFREVPGKEREGLSRIDSSDGSTYYADSVKGRFTISRDNTKNIVYLQMNNLKPEDTAVYYCATDPIIQGRNWYWTGWGQGTQVTVSS,Kd,[2],0.292 nM
VHH3.183 (VHH) VHH: QVQLQESGGGLVQPGGSLRLSCAASGLDYYAIGWFRQAPGKEREGLSRIESSDGSTYYADSVKGRFTISRDNTKNTVYLQMNSLKPEDTAVYYCATDPIIQGSSWYWTSWGQGTQVTVSS,koff,[2],0.0014 s⁻¹
